# The DeepSol protein solubility set
# Test: soluble on expression in E. coli; label from the status in PepcDB or PDB records
row,Sequence,soluble on expression in E. coli
1,MGSDKIHHHHHHMQLAQARNDNGERFVLVIEDDPTQARRLDDVNSVHALALTALDRKVGLAALIKEWPGDARVDAVALADKGQLLAPLDHPDPAHLLVTGTGLTHLGSAEGRDKMHRQMNEADQSDQPLTDSMKMFRKGLEGGKPAPGDFGVQPEWFYKGDGGIVMAPGEALRMPHFALDGGEEPEVAGLYLIDNDGVPRRIGYALGNEFSDHVTERENYLYLAHSKLRACSFGPTLLIDELPDDVQGTSRIRRGDEVLWEKPFISGEANMCHTLANLEAHHFKYAQFCRPGDVHVHFFGTATLSFSDGIIPQPGDVFEIDAKPFALPLRNPLSKDAVAPAPSVKPL,not soluble
2,MGSDKIHHHHHHMQLPISQYNELLQKKLEKLTALLHPFNAPDIQVFDSPTSHYRMRAEFRIWHEQDDFYHIMFDQATLQRYRVDEFPIASMLINRMMQTLLPLLKQQEVLHKKLFQIDYLSTLSNKIIVSLLYHKTLTEEWESAAKNLKDLLEKQDFDVQIIGRASKQKICFEQDYVDEVLPVNGRNYVYRQVENSFTQPNATVNCKMLEWAIDCTQNSEGDLLELYCGNGNFSIALAQNFRKVLATEIAKPSVAAAQFNIAENKVDNLQIIRMSAEEFTQAMNGVRAFNRLKGIDLKSYECNTIFVDPPRAGLDPDTVKLVQNYDRILYISCNPHTLCDNLVELSKTHRIEKAALFDQFPYTDHMESGLWLIRK,not soluble
3,MGSDKIHHHHHHMQLPSLQSATLIRRYKRFLADVQLPSGDITTLHCANTGAMIGCGSQGDTLWYSTSDSATRKYPSSWELTQLANGHLVCINTHRSNQLTFDALQKKQIIELAMYDKIYPEVKYGEENSRIDFLLKGKDLPDCYVEVKSITYVDNDKKLGMFPDAVTTRGQKHLRELISMKKQGHRAVIFFCGLHDGFDHFQIAKHIDARYDELLHQALKEGVEAYAYAAEFEKTQGIPTALNLTKVAPFKAG,not soluble
4,MGSDKIHHHHHHMQLQELHMLVVLAEELNMRKAAERLFVSQPALSQRLQTIEKAWGTKIFLRSQKGLTVTPAGEKIIQFANDVTLEQERIRENIDELEGEIHGTLKLAVASIIGQHWLPKVLKTYVEKYPNAKISLITGWSSEMLKSLYEDQVHIGIIRGNPEWKGRKDYLMTDHLYLVDTEISCIEDIAHTERPFIQFKSDSTYFQEIQHWWHQKFKTSPKQTILVDQIETCKQMALHGIGYAILPSVTLQNEDKVNKMPLLDMKGHPIGRDTWLLGYEPAFELKQVQAFVQVIKDMLDQENPF,not soluble
5,MGSDKIHHHHHHMQNWLKQITTGAMIGTTVLVTSACTMRLSESTFIASDEVPVAFTAEFTQQLQQAMPNHLITPLSLEASDHVKLNGFYIDNPNSLTTLVFYQGNGMKIEPHGLSVLTTLSTLNTDILVMDRRGLGASEGQPSINNIIADAQQQLDYLHQQYQPEKVILHGYSLGSFIAADLAKNNKIDALILHGSATNADDWVDEKTPWYMAPFMTLEMPEDFRKTDNKQVVAQYYQGPLLVIAAEEDEEVPPELSEKLFVASQSANKQLIMVPNVGHQGMLDDANTMSQYQTFITEL,not soluble
6,MGSDKIHHHHHHMQQHPVVSREEWLVKRRALLAREKEAIHQRDAITAERLALPWVKVDTRYVFDTASGKKTLADLFDGRSQLMIYHFMLGPGWAAGCPGCSLVADHLGGTLAHLNHHDVTLIAVSRAPLPEIEAYRQRMGWQFPWASSFGTTFNHDFRVSFTPDELASGAVDYNYTSTQSAQANDELPGLSAFYKDAAGNVYHTYSTYARGLEDLIGTFLILDRAPKGRNESGPMEWVRRHDEYGDAPKANACYEG,not soluble
7,MGSDKIHHHHHHMQRENFGPAWLNENNAVMYFIVGTDIDVDIDDEIKTYEDIIQVDINENYHNITYKAIFWINEINKCRHGPKLLLKIDDDVHIDMIGLQFLIKRYSVMDDFMACRVISNGQVVRNNTSKWYLSKKDYKFPNLGTYCQGMVYFISGNLLPILHGNIEKSQFLWMDDWYVTRSLVGDYKISYYSLEQHSISPNTVREVYSSLMAIKTRKWRTIFAHFRPPQKFPMYRRRKIWANITEINNSCNILRKARINFVSAY,not soluble
8,MGSDKIHHHHHHMQRQTELKNWLQTVYPERDFDLSFAAADADFRRYFRAAFSDGGSVVCMDAPPDKMSVAPYLKVQKLFDMVNVPQVLHADTDLGFVVLNDLGNTTFLTAMLQEQGEAAHKALLLEAIGELVGLQKASREGVLPEYDRETMLREINLFPEWFVAKELGRELTFKQRQLWQQTADTLLPPLLAQPKVYVHRDFIVRNLMLTRGRPGVLDFQDALYGPISYDLVSLLRDAFIEWEEEFVLDLVIRYWEKARAAGLPVPAEFDEFYRRFEWMGVQRHLKVAGIFARLYYRDGKDKYRPEIPRFLNYLRRVSRRYAELAPLYALLVELVGDEELETGFTF,not soluble
9,MGSDKIHHHHHHMQSYSLAELNKETTIGGIGKTVERDVPVIDLADFDNRKAEIADQLWEASVGIGFFQVYNHGIPQQDIDAAFETAWSFFELPADIKAQYPMPKGTNAGWEFKAQVRPSTGTPDNKESYQITRPMMGGLWPSEEELPDFKEKMLRFERQNWELGMRILSCFALKMGFAEDFFTKAHDPASSEYQSTQRLIHYMSMEHAKPEDFEFWRAGAHSDFDCLTILHQKEGEGGLQVCPGKDAASGEWTDVPPKNGYITCNIGDMLMRWSDDQLQSTLHRVRMPRPGEYLGRRLSLPFFCQANRDAVMQGPLGKYEAITAGDYLTQRINANFARK,not soluble
10,MGSDKIHHHHHHMQTEVFSDIFPLLSTATPQTLEWLLNIAIDHEYPTGRAVLMEDAWGNAVYFVVSGWVKVRRTCGDDSVALAILGRGDFFGEMAILDESPRSTDVIALSPVKLLSISRERFIQILFKDPQLHHRMLQLMVRRLRQINQRLQIRSSPPAVKLAHTLVSLGESYGQESEQGREIFNIPFKDLAEVTEIGVEETSKIMDKLHDKGWIKIDSANNIIYLINFKQLLNLAGKV,not soluble
11,MGSDKIHHHHHHMQTIKLYIKDWLAIHPYIQQQATDRYFVDLANRLYSTCTIREIPESIKKKLCLYTAAYFEDVISGLGLWQAFIKKHLELYDTSLPFYTIRPDYIKDEINEEDIRFIIWNTLEKAPYKHPYINPMDRNIEETSHSFFRILDEEYETAPANDTLQDFFMDFKGKENANHKLRWLFGHTYLTEPSVQEYIAQVTETDKFIIPCGPLALFLHEWIDLLTNGETECWEEIEGLYPAIPEISDEMKERNHHTYQLFTQGTNGARIVYLEGYKELHRFLTQVLQWPDDSNHTLPQMKEHKDFIMMVNSEKGILLAKDICKYISDPLNPMYDAATAAQEAFSLLTIPTKCPPDLMEYVINNHYIPDAQFPEFGERELVQKNADFIARNSLLYYYRGD,not soluble
12,MGSDKIHHHHHHMQVRTFKGPSAKTVLDMIKAEIGPEAVILSSRDCSGDGVTWCEMTVGVEREAAAAPRMGRDEPAAGDQTPPAGWDEWHREWDEIKGHIMALMKPALRLDELAPRQRVALEYLEREGVEDNVILALYRRLRGAPSLSVLEPLSAVVPVKGWGGADWPQKMQIVCGPSGVGKTSAVVRMALALRRQNAGVRICVLNADSQRGSGRMVLRHYAELCGMGYHEISGPADAAALLGELDGYDKILVDTPVPGRGATLRSLLEETGLDVLEQQVPAAVQLVMSPLYGDAQISFFLRQYECGLPCGLVWTKLDEACNFGALINVPAASGLPVTALSFGSGLKNSLASARGTMIWRLVFKKQLPGDVAAR,not soluble
13,MGSDKIHHHHHHMQVTEQMKLDLARDGAFVARGLFSPEGLKRMREAFDYGIEHPSPQHGYIFKGTPDEHFNDYGNIANRDVHIATIKALVLDEFVASLWDSQHVWFKGEEIFIKKGGKAGRSPWHQDNSYTPVSGPQMLNIWTCFERIPRKNALEVVRGSHLGIQYNGNSYTDPGKPTKPLWLNTDWPDLPDIEAERAKDPNSWDVLSWDLELGDALVFHSGALHGGAPVSADCPDRHTLVYRFFGDKLFYRPLPTGGCNYPYDISALNDPSLMPGEPFRAAWCTQLR,not soluble
14,MGSDKIHHHHHHMRAVSIVGLGWLGLTLARHLKNLGWKVKGTKRTHEGVEQMRLIRLEAYHLELTPDINADPDDLTALLSVDALVINIPPSQYFFHLQHYVQGVKNLVNEALLNGLQHIIFISSTSVFPDVSGEFDEQSQIVPQSEMSKALLEIEQWLFELKDVDCDIIRFGGLVGEDRHPVYSLAGKDELSAGNMPINLVHVDDCARAIQLLLETPSSQRLYHLVAPQHPTRAEYYSQIAEKLALEAPHFICSEQDPRRVILANKICRELSFVYQCPDPYLMLFERK,not soluble
